Target: T1, LKB1-3xFlag (pcDNA3.1-LKB1-3xFlag) (human) (UniProt Q15831)
T1 sequence: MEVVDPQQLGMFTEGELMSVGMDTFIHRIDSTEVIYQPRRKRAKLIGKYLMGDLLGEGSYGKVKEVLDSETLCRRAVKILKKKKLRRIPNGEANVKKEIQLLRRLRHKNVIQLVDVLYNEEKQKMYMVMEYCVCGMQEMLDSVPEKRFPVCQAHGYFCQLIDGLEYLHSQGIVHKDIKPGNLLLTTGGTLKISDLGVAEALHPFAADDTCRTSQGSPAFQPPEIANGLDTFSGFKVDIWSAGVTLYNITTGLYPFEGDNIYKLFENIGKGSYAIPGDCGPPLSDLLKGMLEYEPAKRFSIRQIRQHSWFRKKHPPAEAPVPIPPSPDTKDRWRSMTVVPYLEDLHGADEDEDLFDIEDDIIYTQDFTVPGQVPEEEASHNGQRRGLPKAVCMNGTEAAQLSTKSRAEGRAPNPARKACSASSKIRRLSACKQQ

B1: STRADα-KinCon (pcDNA3.1-F[1]-STRADα-F[2]) (natural protein)
chain: MSFLVSKPERIRRWVSEKFIVEGLRDLELFGEQPPGDTRRKTNDASSESIASFSKQEVMSSFLPEGGCYELLTVIGKGFEDLMTVNLARYKPTGEYVTVRRINLEACSNEMVTFLQGELHVSKLFNHPNIVPYRATFIADNELWVVTSFMAYGSAKDLICTHFMDGMNELAIAYILQGVLKALDYIHHMGYVHRSVKASHILISVDGKVYLSGLRSNLSMISHGQRQRVVHDFPKYSVKVLPWLSPEVLQQNLQGYDAKSDIYSVGITACELANGHVPFKDMPATQMLLEKLNGTVPCLLDTSTIPAEELTMSPSRSVANSGLSDSLTTSTPRPSNGDSPSHPYHRTFSPHFHHFVEQCLQRNPDARPSASTLLNHSFFKQIKRRASEALPELLRPVTPITNFEGSQSQDHSGIFGLVTNLEELEVDDWEF
  STRADα KinCon reporter bioluminescence (intramolecular RLuc PCA, closing of the conformation) on co-expression of LKB1 and MO25; HEK293T, 48 hr of expression (also HeLa and SW480): > 10 fold
